Experimental data from US20240301064A1 (published 2024).
“And” between values parts separate entries of the source, which are not always exact repeats. Equal values may be shown once.

Target: T1, human PD-1 (human, UniProt Q15116 25-167, limits assumed)
T1 construct: also called huPD-1
Experiment: BLI, antibody on AHC tip, soluble PD-1

T1 sequence (Q15116 25-167 limits assumed): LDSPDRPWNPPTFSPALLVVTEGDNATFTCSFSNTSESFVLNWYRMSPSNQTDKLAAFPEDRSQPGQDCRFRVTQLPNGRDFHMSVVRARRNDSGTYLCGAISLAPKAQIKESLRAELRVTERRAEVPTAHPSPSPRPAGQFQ

Kd | Binder
6 nM and 11.6 nM and 11.1 nM | PMAB134 (bispecific antibody, human IgG1, kappa) heavy: EVQLLESGGGLVQPGGSLRLSCAASGFTFSNSDMSWVRQAPGKGLEWVSGITISGGSTYYADSVKGRFTISRDNSKNTLYLQMNSLRAEDTAVYYCARGRGGSGWLDYWGQGTLVTVSSASTKGPSVFPLAPSSKSTSGGTAALGCLVKDYFPEPVTVSWNSGALTSGVHTFPAVLQSSGLYSLSSVVTVPSSSLGTQTYICNVNHKPSNTKVDKKVEPKSCDKTHTCPPCPAPEAAGAPSVFLFPPKPKDTLMISRTPEVTCVVVDVSHEDPEVKFNWYVDGVEVHNAKTKPREEQYNSTYRVVSVLTVLHQDWLNGKEYKCKVSNKALPAPIEKTISKAKGQPREPQVYTLPPSREEMTKNQVSLTCLVKGFYPSDIAVEWESNGQPENNYKTTPPVLDSDGSFFLYSKLTVDKSRWQQGNVFSCSVMHEALHNHYTQKSLSLSPGGGGGSGGGGSGGGGSEVQLLESGGGLVQPGGSLRLSCAASGFTFSDFWMHWVRQAPGKGLEWISYISGDSGYTNYADSVKGRFTISRDNSKNTLYLQMNSLRAEDTAVYYCARDRPYYYYMDVWGKGTTVTVSSGGGGSGGGGSGGGGSGGGGSDIQMTQSPSSLSASVGDRVTITCRASQSVSRSLAWYQQKPGKAPKLLIYAASSLQSGVPSRFSGSGSGTDFTLTISSLQPEDFATYYCQQYKSYPVTFGQGTKVEIK light: not shown
3 nM | PMAB135 (bispecific antibody, human IgG1, kappa) heavy: EVQLLESGGGLVQPGGSLRLSCAASGFTFSSSDMSWVRQAPGKGLEWVSGITISGGSTYYADSVKGRFTISRDNSKNTLYLQMNSLRAEDTAVYYCARGRGGSGWLDYWGQGTLVTVSSASTKGPSVFPLAPSSKSTSGGTAALGCLVKDYFPEPVTVSWNSGALTSGVHTFPAVLQSSGLYSLSSVVTVPSSSLGTQTYICNVNHKPSNTKVDKKVEPKSCDKTHTCPPCPAPEAAGAPSVFLFPPKPKDTLMISRTPEVTCVVVDVSHEDPEVKFNWYVDGVEVHNAKTKPREEQYNSTYRVVSVLTVLHQDWLNGKEYKCKVSNKALPAPIEKTISKAKGQPREPQVYTLPPSREEMTKNQVSLTCLVKGFYPSDIAVEWESNGQPENNYKTTPPVLDSDGSFFLYSKLTVDKSRWQQGNVFSCSVMHEALHNHYTQKSLSLSPGGGGGSGGGGSGGGGSEVQLLESGGGLVQPGGSLRLSCAASGFTFSDFWMHWVRQAPGKGLEWISYISGDSGYTNYADSVKGRFTISRDNSKNTLYLQMNSLRAEDTAVYYCARDRPYYYYMDVWGKGTTVTVSSGGGGSGGGGSGGGGSGGGGSDIQMTQSPSSLSASVGDRVTITCRASQSVSRSLAWYQQKPGKAPKLLIYAASSLQSGVPSRFSGSGSGTDFTLTISSLQPEDFATYYCQQYKSYPVTFGQGTKVEIK light: not shown
17 nM | PMAB143 (bispecific antibody, human IgG1, kappa) heavy: EVQLLESGGGLVQPGGSLRLSCAASGFTFSNSDMSWVRQAPGKGLEWVSGITISGGSTYYADSVKGRFTISRDNSKNTLYLQMNSLRAEDTAVYYCARGRGGSGWLDYWGQGTLVTVSSASTKGPSVFPLAPSSKSTSGGTAALGCLVKDYFPEPVTVSWNSGALTSGVHTFPAVLQSSGLYSLSSVVTVPSSSLGTQTYICNVNHKPSNTKVDKKVEPKSCDKTHTCPPCPAPEAAGAPSVFLFPPKPKDTLMISRTPEVTCVVVDVSHEDPEVKFNWYVDGVEVHNAKTKPREEQYNSTYRVVSVLTVLHQDWLNGKEYKCKVSNKALPAPIEKTISKAKGQPREPQVYTLPPSREEMTKNQVSLTCLVKGFYPSDIAVEWESNGQPENNYKTTPPVLDSDGSFFLYSKLTVDKSRWQQGNVFSCSVMHEALHNHYTQKSLSLSPGGGGGSGGGGSGGGGSEVQLLESGGGLVQPGGSLRLSCAASGFTFSDFWMHWVRQAPGKGLEWISYISGDSGYTNYADSVKGRFTISRDNSKNTLYLQMNSLRAEDTAVYYCARDRPYYYYMDVWGKGTTVTVSSGGGGSGGGGSGGGGSGGGGSDIQMTQSPSSLSASVGDRVTITCRASQSVSRSLAWYQQKPGKAPKLLIYAASSLQSGVPSRFSGSGSGTDFTLTISSLQPEDFATYYCQQYKSYPVTFGQGTKVEIK light: not shown
36 nM | PMAB136 (bispecific antibody, human IgG1, kappa) heavy: EVQLLESGGGLVQPGGSLRLSCAASGFTFSNYDMSWVRQAPGKGLEWVSGITISGGSTYYADSVKGRFTISRDNSKNTLYLQMNSLRAEDTAVYYCARGRGGSGWLDYWGQGTLVTVSSASTKGPSVFPLAPSSKSTSGGTAALGCLVKDYFPEPVTVSWNSGALTSGVHTFPAVLQSSGLYSLSSVVTVPSSSLGTQTYICNVNHKPSNTKVDKKVEPKSCDKTHTCPPCPAPEAAGAPSVFLFPPKPKDTLMISRTPEVTCVVVDVSHEDPEVKFNWYVDGVEVHNAKTKPREEQYNSTYRVVSVLTVLHQDWLNGKEYKCKVSNKALPAPIEKTISKAKGQPREPQVYTLPPSREEMTKNQVSLTCLVKGFYPSDIAVEWESNGQPENNYKTTPPVLDSDGSFFLYSKLTVDKSRWQQGNVFSCSVMHEALHNHYTQKSLSLSPGGGGGSGGGGSGGGGSEVQLLESGGGLVQPGGSLRLSCAASGFTFSDFWMHWVRQAPGKGLEWISYISGDSGYTNYADSVKGRFTISRDNSKNTLYLQMNSLRAEDTAVYYCARDRPYYYYMDVWGKGTTVTVSSGGGGSGGGGSGGGGSGGGGSDIQMTQSPSSLSASVGDRVTITCRASQSVSRSLAWYQQKPGKAPKLLIYAASSLQSGVPSRFSGSGSGTDFTLTISSLQPEDFATYYCQQYKSYPVTFGQGTKVEIK light: not shown
53 nM | PMAB138 (bispecific antibody, human IgG1, kappa) heavy: EVQLLESGGGLVQPGGSLRLSCAASGFTFSNSDMSWVRQAPGKGLEWVSAITISGGSTYYADSVKGRFTISRDNSKNTLYLQMNSLRAEDTAVYYCARGRGGSGWLDYWGQGTLVTVSSASTKGPSVFPLAPSSKSTSGGTAALGCLVKDYFPEPVTVSWNSGALTSGVHTFPAVLQSSGLYSLSSVVTVPSSSLGTQTYICNVNHKPSNTKVDKKVEPKSCDKTHTCPPCPAPEAAGAPSVFLFPPKPKDTLMISRTPEVTCVVVDVSHEDPEVKFNWYVDGVEVHNAKTKPREEQYNSTYRVVSVLTVLHQDWLNGKEYKCKVSNKALPAPIEKTISKAKGQPREPQVYTLPPSREEMTKNQVSLTCLVKGFYPSDIAVEWESNGQPENNYKTTPPVLDSDGSFFLYSKLTVDKSRWQQGNVFSCSVMHEALHNHYTQKSLSLSPGGGGGSGGGGSGGGGSEVQLLESGGGLVQPGGSLRLSCAASGFTFSDFWMHWVRQAPGKGLEWISYISGDSGYTNYADSVKGRFTISRDNSKNTLYLQMNSLRAEDTAVYYCARDRPYYYYMDVWGKGTTVTVSSGGGGSGGGGSGGGGSGGGGSDIQMTQSPSSLSASVGDRVTITCRASQSVSRSLAWYQQKPGKAPKLLIYAASSLQSGVPSRFSGSGSGTDFTLTISSLQPEDFATYYCQQYKSYPVTFGQGTKVEIK light: not shown
22 nM | PMAB140 (bispecific antibody, human IgG1, kappa) heavy: EVQLLESGGGLVQPGGSLRLSCAASGFTFSNSDMSWVRQAPGKGLEWVSGITGSGGSTYYADSVKGRFTISRDNSKNTLYLQMNSLRAEDTAVYYCARGRGGSGWLDYWGQGTLVTVSSASTKGPSVFPLAPSSKSTSGGTAALGCLVKDYFPEPVTVSWNSGALTSGVHTFPAVLQSSGLYSLSSVVTVPSSSLGTQTYICNVNHKPSNTKVDKKVEPKSCDKTHTCPPCPAPEAAGAPSVFLFPPKPKDTLMISRTPEVTCVVVDVSHEDPEVKFNWYVDGVEVHNAKTKPREEQYNSTYRVVSVLTVLHQDWLNGKEYKCKVSNKALPAPIEKTISKAKGQPREPQVYTLPPSREEMTKNQVSLTCLVKGFYPSDIAVEWESNGQPENNYKTTPPVLDSDGSFFLYSKLTVDKSRWQQGNVFSCSVMHEALHNHYTQKSLSLSPGGGGGSGGGGSGGGGSEVQLLESGGGLVQPGGSLRLSCAASGFTFSDFWMHWVRQAPGKGLEWISYISGDSGYTNYADSVKGRFTISRDNSKNTLYLQMNSLRAEDTAVYYCARDRPYYYYMDVWGKGTTVTVSSGGGGSGGGGSGGGGSGGGGSDIQMTQSPSSLSASVGDRVTITCRASQSVSRSLAWYQQKPGKAPKLLIYAASSLQSGVPSRFSGSGSGTDFTLTISSLQPEDFATYYCQQYKSYPVTFGQGTKVEIK light: not shown
50 nM | PMAB139 (bispecific antibody, human IgG1, kappa) heavy: EVQLLESGGGLVQPGGSLRLSCAASGFTFSNSDMSWVRQAPGKGLEWVSGISISGGSTYYADSVKGRFTISRDNSKNTLYLQMNSLRAEDTAVYYCARGRGGSGWLDYWGQGTLVTVSSASTKGPSVFPLAPSSKSTSGGTAALGCLVKDYFPEPVTVSWNSGALTSGVHTFPAVLQSSGLYSLSSVVTVPSSSLGTQTYICNVNHKPSNTKVDKKVEPKSCDKTHTCPPCPAPEAAGAPSVFLFPPKPKDTLMISRTPEVTCVVVDVSHEDPEVKFNWYVDGVEVHNAKTKPREEQYNSTYRVVSVLTVLHQDWLNGKEYKCKVSNKALPAPIEKTISKAKGQPREPQVYTLPPSREEMTKNQVSLTCLVKGFYPSDIAVEWESNGQPENNYKTTPPVLDSDGSFFLYSKLTVDKSRWQQGNVFSCSVMHEALHNHYTQKSLSLSPGGGGGSGGGGSGGGGSEVQLLESGGGLVQPGGSLRLSCAASGFTFSDFWMHWVRQAPGKGLEWISYISGDSGYTNYADSVKGRFTISRDNSKNTLYLQMNSLRAEDTAVYYCARDRPYYYYMDVWGKGTTVTVSSGGGGSGGGGSGGGGSGGGGSDIQMTQSPSSLSASVGDRVTITCRASQSVSRSLAWYQQKPGKAPKLLIYAASSLQSGVPSRFSGSGSGTDFTLTISSLQPEDFATYYCQQYKSYPVTFGQGTKVEIK light: not shown
33 nM | PMAB142 (bispecific antibody, human IgG1, kappa) heavy: EVQLLESGGGLVQPGGSLRLSCAASGFTFSNSDMSWVRQAPGKGLEWVSGITISGGSTYYADSVKGRFTISRDNSKNTLYLQMNSLRAEDTAVYYCARGRGGSGWLDYWGQGTLVTVSSASTKGPSVFPLAPSSKSTSGGTAALGCLVKDYFPEPVTVSWNSGALTSGVHTFPAVLQSSGLYSLSSVVTVPSSSLGTQTYICNVNHKPSNTKVDKKVEPKSCDKTHTCPPCPAPEAAGAPSVFLFPPKPKDTLMISRTPEVTCVVVDVSHEDPEVKFNWYVDGVEVHNAKTKPREEQYNSTYRVVSVLTVLHQDWLNGKEYKCKVSNKALPAPIEKTISKAKGQPREPQVYTLPPSREEMTKNQVSLTCLVKGFYPSDIAVEWESNGQPENNYKTTPPVLDSDGSFFLYSKLTVDKSRWQQGNVFSCSVMHEALHNHYTQKSLSLSPGGGGGSGGGGSGGGGSEVQLLESGGGLVQPGGSLRLSCAASGFTFSDFWMHWVRQAPGKGLEWISYISGDSGYTNYADSVKGRFTISRDNSKNTLYLQMNSLRAEDTAVYYCARDRPYYYYMDVWGKGTTVTVSSGGGGSGGGGSGGGGSGGGGSDIQMTQSPSSLSASVGDRVTITCRASQSVSRSLAWYQQKPGKAPKLLIYAASSLQSGVPSRFSGSGSGTDFTLTISSLQPEDFATYYCQQYKSYPVTFGQGTKVEIK light: not shown
